Consider 43 substances from patent US9266930.

Read-outs that look alike come from different tables or passages of the source.

Test [1] concerns the target HLA-A*0201 (Human).
Test [2] addresses HLA-A*1101 (human).
Test [3] deals with HLA-A*0301 (human). Briefly: competition with 125I-labeled probe peptide for purified HLA, gel filtration.
For test [4], the target named is HLA-A*1101 (human). Described as above.
Test [5] has as its target HLA-A*3101 (human). The description is as above.
Test [6] concerns the target HLA-A*3301 (human). Described as above.
Test [7] concerns the target HLA-A*6801 (human). The test is described as above.
The target in test [8] is HLA-A*1101 (Human).
For test [9], the target named is HLA-A*1101 (human). This is another data set of the same source.
The target in test [10] is HLA-A*3101 (human).
Test [11] has as its target HLA-A*3301 (human).
For test [12], the target named is HLA-A*0301 (human).

As for “[…] (EXP position 83, 10 amino acids) (peptide; other documents disagree on this pair)”, the binding affinity ratio (IC50 of standard peptide / IC50 of test peptide) in test [1] is 0.038. Turning to “[…] (Pf LSA 1825, 10-mer A03 supermotif peptide) (peptide; other documents disagree on this pair)”, the binding affinity ratio (IC50 of standard peptide / IC50 of test peptide) in [2] worked out at 0.0009. Turning to “[…] (P. falciparum LSA, position 1660, 10 amino acids) (peptide; other documents disagree on this pair)”, the binding affinity ratio (relative to standard peptide) came out at 0.0001 in test [3]; 0.0002 in test [4]; 0.0009 in test [5]; 0.0008 in test [6]; 0.0029 in [7]. With “[…] (P. falciparum EXP-1, position 79, 10 amino acids) (peptide; other documents disagree on this pair)”, the binding affinity ratio (IC50 of standard peptide / IC50 of test peptide) in test [1] turned out to be 0.0022. Consider “[…] (LSA, position 1834, 10 amino acids) (peptide; other documents disagree on this pair)”, for which the binding affinity ratio (IC50 of standard peptide / IC50 of test peptide) in test [8] was determined as 0.0007. Regarding “[…] (LSA position 1703, 9-mer) (peptide; other documents disagree on this pair)”, in test [9], the binding affinity ratio (IC50 of standard peptide / IC50 of test peptide) worked out at 0.0027.

Consider “[…] (LSA, position 1825, 10 amino acids) (peptide; other documents disagree on this pair)”, for which the binding affinity ratio (IC50 of standard peptide / IC50 of test peptide) in test [8] worked out at 0.0009. As for “[…] (LSA position 1183, 10-mer) (peptide; other documents disagree on this pair)”, in test [9], the binding affinity ratio (IC50 of standard peptide / IC50 of test peptide) is 0.0002. Turning to “[…] (Pf LSA 1631, 10-mer A03 supermotif peptide) (peptide; other documents disagree on this pair)”, the binding affinity ratio (IC50 of standard peptide / IC50 of test peptide) in [10] turned out to be 0.0086; in test [11], 0.0011. With “[…] (LSA, position 68, 9 amino acids) (peptide; other documents disagree on this pair)”, the binding affinity ratio (IC50 of standard peptide / IC50 of test peptide) in test [8] came to 0.0038. For “[…] (LSA position 41, 9-mer) (peptide; other documents disagree on this pair)”, in test [9], the binding affinity ratio (IC50 of standard peptide / IC50 of test peptide) is 0.003. Regarding “[…] (Pf LSA 16, 9-mer A03 supermotif peptide) (peptide; other documents disagree on this pair)”, the binding affinity ratio (IC50 of standard peptide / IC50 of test peptide) in [12] is 0.026; in test [2] it was 0.01.

In the case of “[…] (P. falciparum LSA, position 1626, 10 amino acids) (peptide; other documents disagree on this pair)”, the binding affinity ratio (relative to standard peptide) in test [3] came to 0.0001; in test [4], 0.0002. Turning to “[…] (Pf LSA position 1751, 9-mer) (peptide; other documents disagree on this pair)”, the binding affinity ratio (IC50 of standard peptide / IC50 of test peptide) in test [9] is 0.0018. With “[…] (P. falciparum SSP2, position 31, 9 amino acids) (peptide; other documents disagree on this pair)”, the results for the binding affinity ratio (relative to standard peptide) in test [12] and in test [2] were 0.0005 and 0.0002, respectively. As to “[…] (LSA, position 1704, 9 amino acids) (peptide; other documents disagree on this pair)”, in [8], the binding affinity ratio (IC50 of standard peptide / IC50 of test peptide) is 0.0007. In the case of “[…] (Pf LSA 1830, 10-mer A03 supermotif peptide) (peptide; other documents disagree on this pair)”, the binding affinity ratio (IC50 of standard peptide / IC50 of test peptide) in test [12] turned out to be 0.0004. As to “[…] (P. falciparum LSA, position 1609, 9 amino acids) (peptide; other documents disagree on this pair)”, the binding affinity ratio (relative to standard peptide) in test [3] was determined as 0.0001; in test [4], 0.0002. Turning to “[…] (P. falciparum LSA, position 1713, 10 amino acids) (peptide; other documents disagree on this pair)”, the binding affinity ratio (relative to standard peptide) in test [4] is 0.0002; in test [5], 0.0009; in test [6], 0.0055; in test [7], 0.0046.

On to “[…] (LSA position 1703, 10-mer) (peptide; other documents disagree on this pair)”, for which the binding affinity ratio (IC50 of standard peptide / IC50 of test peptide) in test [9] came out at 0.0002. Still for that read-out and setting: with “[…] (LSA position 1750, 10-mer) (peptide; other documents disagree on this pair)” the figure was 0.0002.

Turning to “[…] (P. falciparum LSA, position 1676, 9-mer) (peptide; other documents disagree on this pair)”, the binding affinity ratio (IC50 of standard peptide / IC50 of test peptide) in test [9] was found to be 0.0013. Still for that read-out and setting: with “[…] (LSA position 1591, 10-mer) (peptide; other documents disagree on this pair)” the figure was 0.0002. In the case of “[…] (EXP position 84, 10 amino acids) (peptide; other documents disagree on this pair)”, the binding affinity ratio (IC50 of standard peptide / IC50 of test peptide) in test [1] came to 0.0059. Turning to “[…] (Pf LSA 61, 10-mer A03 supermotif peptide) (peptide; other documents disagree on this pair)”, the binding affinity ratio (IC50 of standard peptide / IC50 of test peptide) in test [12] came to 0.0004.

With “[…] (LSA position 1387, 10-mer) (peptide; other documents disagree on this pair)”, the binding affinity ratio (IC50 of standard peptide / IC50 of test peptide) in test [9] is 0.0002. Turning to “[…] (Pf LSA 1854, 10-mer A03 supermotif peptide) (peptide; other documents disagree on this pair)”, in test [2], the binding affinity ratio (IC50 of standard peptide / IC50 of test peptide) came to 0.049. For “[…] (LSA position 520, 10-mer) (peptide; other documents disagree on this pair)”, in test [9], the binding affinity ratio (IC50 of standard peptide / IC50 of test peptide) is 0.0002.

Turning to “[…] (LSA position 1574, 10-mer) (peptide; other documents disagree on this pair)”, the binding affinity ratio (IC50 of standard peptide / IC50 of test peptide) in test [9] is 0.0002. On the same count and under the same terms, in the case of “[…] (LSA position 49, 10-mer) (peptide; other documents disagree on this pair)” it was 0.0018.

Consider “[…] (Pf LSA 68, 9-mer A03 supermotif peptide) (peptide; other documents disagree on this pair)”, for which the binding affinity ratio (IC50 of standard peptide / IC50 of test peptide) was found to be 0.0028 in test [12] and 0.0038 in [2]. “[…] (LSA position 40, 10-mer) (peptide; other documents disagree on this pair)”: the binding affinity ratio (IC50 of standard peptide / IC50 of test peptide) in test [9] worked out at 0.0002. Take “[…] (Pf LSA 1834, 10-mer A03 supermotif peptide) (peptide; other documents disagree on this pair)”: the binding affinity ratio (IC50 of standard peptide / IC50 of test peptide) is 0.0081 in test [12], 0.0007 in [2], 0.0042 in test [10] and 0.0009 in test [11]. Turning to “[…] (LSA, position 1854, 10 amino acids) (peptide; other documents disagree on this pair)”, the binding affinity ratio (IC50 of standard peptide / IC50 of test peptide) in [8] came out at 0.049. Turning to “[…] (LSA position 1855, 10-mer) (peptide; other documents disagree on this pair)”, the binding affinity ratio (IC50 of standard peptide / IC50 of test peptide) in test [9] came to 0.0045. Turning to “[…] (P. falciparum EXP-1, position 80, 9 amino acids) (peptide; other documents disagree on this pair)”, the binding affinity ratio (IC50 of standard peptide / IC50 of test peptide) in test [1] amounted to 0.021. As for “[…] (EXP position 84, 9 amino acids) (peptide; other documents disagree on this pair)”, in test [1], the binding affinity ratio (IC50 of standard peptide / IC50 of test peptide) came to 0.035. “[…] (Pf LSA 1854, 9-mer A03 supermotif peptide) (peptide; other documents disagree on this pair)”: the binding affinity ratio (IC50 of standard peptide / IC50 of test peptide) in test [2] is 0.034. As to “[…] (P. falciparum LSA, position 1575, 9 amino acids) (peptide; other documents disagree on this pair)”, the binding affinity ratio (relative to standard peptide) in test [3] is 0.0001; in [4], 0.0002. With “[…] (LSA position 1726, 10-mer) (peptide; other documents disagree on this pair)”, in test [9], the binding affinity ratio (IC50 of standard peptide / IC50 of test peptide) amounted to 0.0002. Still for that read-out and setting: with “[…] (LSA position 49, 9-mer) (peptide; other documents disagree on this pair)” the figure was 0.037.

With “[…] (LSA, position 1854, 9 amino acids) (peptide; other documents disagree on this pair)”, the binding affinity ratio (IC50 of standard peptide / IC50 of test peptide) in test [8] was 0.034. For “[…] (P. falciparum LSA, position 1388, 9 amino acids) (peptide; other documents disagree on this pair)”, the binding affinity ratio (relative to standard peptide) is 0.0001 in test [3] and 0.0002 in test [4].
